Results: paper PMC6379669 (Nucleic Acids Research, 2018)

Target: full-length human RBBP4 (residues 1–425), recombinant (human, UniProt Q09028 1-425)
Assay: ITC

Chain of full-length human RBBP4 (residues 1–425), recombinant (Q09028 whole entry, the tested form may be a part): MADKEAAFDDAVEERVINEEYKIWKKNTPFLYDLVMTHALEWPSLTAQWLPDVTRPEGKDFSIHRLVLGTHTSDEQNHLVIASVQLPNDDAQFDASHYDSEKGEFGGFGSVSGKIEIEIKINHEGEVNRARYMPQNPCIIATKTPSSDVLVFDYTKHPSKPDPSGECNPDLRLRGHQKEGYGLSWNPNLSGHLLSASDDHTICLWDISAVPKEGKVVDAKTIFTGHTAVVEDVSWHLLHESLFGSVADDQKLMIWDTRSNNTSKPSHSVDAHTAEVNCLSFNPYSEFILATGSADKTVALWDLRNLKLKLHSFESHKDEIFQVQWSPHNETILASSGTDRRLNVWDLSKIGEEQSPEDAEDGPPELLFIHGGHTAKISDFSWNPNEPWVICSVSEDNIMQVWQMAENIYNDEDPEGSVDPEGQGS

Row | Binder | Kd | stoichiometry N
1 | MRSKGRARKLAT [human PRDM3 peptide (residues 1–12)] | 2.96 µM | 1
2 | MRSKARARKLAK [human PRDM16 peptide (residues 1–12)] | 3.15 µM | 1
